Results published in patent US12643926B2, “LysM receptor motifs” (Aarhus Universitet, priority 2020, dated 2026).

Experiment: Biolayer interferometry of LYS11 ectodomains binding to CO5
Settings: BLI; result in words
Experimental: Binding of L. japonicus LYS11 ectodomain and domain-swapped versions of L. japonicus LYS11 ectodomain to ligands was measured on an Octet RED 96 system (Pall ForteBio). The ligands used were CO5 chitin oligomer (corresponding to the backbone of S. meliloti Nod factor LCO-V), M. loti Nod factor LCO, and S. meliloti Nod factor LCO. S. meliloti LCO consists of a tetrameric/pentameric N-acetylglucosamine backbone that is O-sulfated on the reducing terminal residue, O-acetylated on the non-reducing terminal residue, and mono-N-acylated by unsaturated C16 acyl groups. M. loti LCO is a pentameric N-acetylglucosamine with a cis-vaccenic acid and a carbamoyl group at the non-reducing terminal residue together with a 2,4-O-acetylfucose at the reducing terminal residue. Biotinylated ligand conjugates were immobilized on streptavidin biosensors (kinetic quality, Pall ForteBio) at a concentration of 125-250 nM for 5 minutes. Data analysis was performed in GraphPad Prism 6 software (GraphPad Software, Inc.). Equilibrium dissociation constants derived from the steady-state were determined by applying a non-linear regression (one site, specific binding) to the response at equilibrium plotted against the protein concentration. Kinetic parameters were determined by non-linear regression (association followed by dissociation) on the subtracted data. […]

binding to CO5 (chitin): able to bind CO5
B1: L. japonicus LYS11 ectodomain: L. japonicus LYS11 ectodomain (residues 26-234 of SEQ ID NO: 255), 6xHis tag, insect cell expressed (protein)
chain: LAQLSHTNGTNFSCPVDSPPSCDTYVTYFAQSPNFLTLTSISDLFDTSPLSIARASNIKDENQNLVPGQLLLVPVTCACSGSNSFSNISHMIKEGESYYYLSTTSYENLTNWETVQDSNPNYNPYLLPVGIKVVIPLFCKCPSNYHLNKGIEYLITYVWHNNDNVSLVASKFGVSTQDIISENNFSHQNFTAATNFPILIPVTQLPSLS
modifications: 6xHis tag; Xaa = hydrophobic patch residues; Xaa = residues immediately adjacent to hydrophobic patch residues
